Test results from patent US20260224723A1 (DUALITY BIOLOGICS SUZHOU, published 2026).

T1: Human BTNL2 protein, His Tag (human, UniProt Q9UIR0-1 24-455, limits assumed)
T1 construct: Bought protein; also called AtaGenix ATMP02212HU; not shown: His tag
T1 sequence (looked up): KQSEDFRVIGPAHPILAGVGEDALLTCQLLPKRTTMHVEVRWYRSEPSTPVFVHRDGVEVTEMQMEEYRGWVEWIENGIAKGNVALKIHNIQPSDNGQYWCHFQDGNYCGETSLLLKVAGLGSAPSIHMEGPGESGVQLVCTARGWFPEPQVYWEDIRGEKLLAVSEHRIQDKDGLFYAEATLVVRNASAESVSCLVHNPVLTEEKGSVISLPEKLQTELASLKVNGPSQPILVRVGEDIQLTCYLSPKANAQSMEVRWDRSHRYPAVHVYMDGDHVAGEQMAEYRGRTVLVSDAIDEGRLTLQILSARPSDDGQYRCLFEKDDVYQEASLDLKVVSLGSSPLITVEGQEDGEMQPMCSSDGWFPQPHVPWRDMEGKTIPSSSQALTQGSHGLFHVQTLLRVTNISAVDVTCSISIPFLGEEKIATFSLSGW

T2: Human B7-H3(4Ig), His Tag (human, UniProt Q5ZPR3 29-461)
T2 construct: also called recombinant human B7H3 antigen; human B7-H3 protein; not shown: His tag
T2 sequence (looked up): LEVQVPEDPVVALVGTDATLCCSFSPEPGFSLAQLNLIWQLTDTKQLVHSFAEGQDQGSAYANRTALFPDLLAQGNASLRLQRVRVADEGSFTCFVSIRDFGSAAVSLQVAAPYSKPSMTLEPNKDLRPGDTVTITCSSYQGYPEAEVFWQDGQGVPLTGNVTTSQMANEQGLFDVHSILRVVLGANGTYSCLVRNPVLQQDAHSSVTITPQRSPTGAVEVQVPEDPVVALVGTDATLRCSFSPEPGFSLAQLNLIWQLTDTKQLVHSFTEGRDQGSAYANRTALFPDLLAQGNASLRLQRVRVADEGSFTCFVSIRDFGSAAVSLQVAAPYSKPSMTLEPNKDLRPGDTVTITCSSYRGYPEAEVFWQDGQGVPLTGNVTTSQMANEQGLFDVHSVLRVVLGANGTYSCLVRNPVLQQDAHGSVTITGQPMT


Columns and labels:
[1] = molecular target: T3, Cynomolgus monkey full-length B7H3 on transfected FlpinCHO cells (cynomolgus monkey); assay: FACS on cynomolgus monkey B7H3-transfected FlpinCHO cell pool
T3 construct: whole, on cells; also called W3XX088-FlpinCHO.cProl.pool
Description: FACS was used to detect the binding of antibodies to cynomolgus monkey B7H3. FlpinCHO cells were transfected with cynomolgus monkey B7H3 (W3XX088-FlpinCHO.cProl.pool) (1×10⁵ cells/well), and the transfected cells were incubated with various concentrations of antibodies (3.16-fold serially diluted with 1×DPBS/1% BSA from 50 nM to 0.0005 nM) in a volume of 100 μL/well in a refrigerator set to 4° C. for 1 h. Anti-human B7H3 reference antibody enoblituzumab (MacroGeneics) was used as a positive control. Human IgG1 isotype antibody was used as a negative control. After washing the cells with 1×DPBS/1% BSA, Alexa 647 goat anti-human antibody (diluted in a 1:500 ratio in 1×DPBS/1% BSA) was added. The cells were incubated in a refrigerator set to 4° C. for 0.5 h in the dark. The mean fluorescence intensity (MFI) of the cells was measured by a flow cytometry and analyzed by FlowJo. EC₅₀ values were calculated by four-parameter non-linear regression analysis using GraphPad Prism 7 software.

[2] = molecular target: T1, Human BTNL2 protein, His Tag; assay: ELISA, protein immobilized on plate, serially diluted antibody
Description: (§1) Human PD-L1 protein (see the table above), human B7-H2 protein, human B7-H3 protein, human B7-H4 protein, human B7-H5 protein, human B7-H6 protein, human B7-1 protein, human B7-2 protein, human PD-L2 protein, human B7-H7 protein, and human BTNL2 protein were separately immobilized on 96-well plates by incubation at 4° C. overnight. The 96-well plates were then blocked by incubation with 1% BSA in PBS at 37° C. for 1 h. After blocking, the 96-well plates were washed 3 times with PBST (PBS containing 0.05% Tween 20). […] After incubation, the 96-well plates were washed 3 times with PBST, incubated with a secondary antibody (see the table above) in binding buffer at 37° C. for 1 h, and then washed again. TMB was added for color development, and the reaction was stopped by 1 M H₂SO₄.

[3] = molecular target: T2, Human B7-H3(4Ig), His Tag; assay: ELISA, plate coated with 2 µg/mL recombinant human B7-H3 (4Ig), serially diluted antibody, HRP anti-human secondary antibody, OD450
Description: A 96-well ELISA plate was coated with 2 μg/mL recombinant human B7H3 antigen (see the table above) at 30 μL/well and kept at 4° C. overnight. The following day, the well plate was washed 3 times with PBST and then blocked with 5% skim milk for 2 h. […] The plate was then washed 3 times with PBST, and an HRP-labeled anti-human secondary antibody diluted in a 1:5000 ratio was then added at 100 μL/well and incubated for 1 h. After the incubation was complete, the plate was washed six times with PBST, and TMB (SurModics, TMBS-1000-01) was added for color development. Based on the results of the color development, the reaction was stopped by adding 2M HCl, and the plate was read by a microplate reader (Molecular Devices, SpecterMax 190) at OD450.

[4] = molecular target: T1, Human BTNL2 protein, His Tag; assay: ELISA, protein immobilized on plate, serially diluted antibody-drug conjugate
Description: as §1

EC50 [1]	binding result [2]	EC50 (read off the curve) [3]	binding result [4]	Binder
5.25 nM	–	–	–	W301088-1.145.16-xIgG1KV320 (antibody, V domains shown) VH: DVQLQESGPGLVKPSQSLSLTCTVTDYSITGDYAWNWIRQFPGNKLEWMGYISYSGSTSYNPSLQSRISITRDTSKNQFFLQLNSVTSEDTATYFCARSLGRRWYFVVWGAGTTVTVSA VL: not shown
9.58 nM	–	–	–	Enoblituzumab (MacroGenics) (antibody, V domains shown) VH: EVQLVESGGGLVQPGGSLRLSCAASGFTFSSFGMHWVRQAPGKGLEWVAYISSDSSAIYYADTVKGRFTISRDNAKNSLYLQMNSLRDEDTAVYYCGRGRENIYYGSRLDYWGQGTTVTVSS VL: DIQLTQSPSFLSASVGDRVTITCKASQNVDTNVAWYQQKPGKAPKALIYSASYRYSGVPSRFSGSGSGTDFTLTISSLQPEDFATYYCQQYNNYPFTFGQGTKLEIKR
4.68 nM	no binding	~0.1 µg/mL	–	W301088-1.145.16-z3-p1-uIgG1KV320 (antibody, V domains shown, Humanized, PTM-removed (VL N027dQ) antibody; human IgG1 LALA, kappa; also called WBP301088; W301088-z3-p1) VH: QVQLQESGPGLVKPSQTLSLTCTVTDYSITGDYAWNWIRQHPGKGLEWIGYISYSGSTSYNPSLQSRVTISRDTSKNQFSLKLSSVTAADTAVYFCARSLGRRWYFVVWGQGTTVTVSS VL: not shown
–	–	–	no binding	Antibody-drug conjugate WBP301088-X2 (DAR6) (antibody, human IgG1, kappa, L234A L235A, V domains shown, linker-payload X2 conjugated after TCEP reduction; drug loading (DAR) 5.68 per antibody; sites not stated) VH: QVQLQESGPGLVKPSQTLSLTCTVTDYSITGDYAWNWIRQHPGKGLEWIGYISYSGSTSYNPSLQSRVTISRDTSKNQFSLKLSSVTAADTAVYFCARSLGRRWYFVVWGQGTTVTVSS VL: not shown
